Patent US20220372155A1 (LYVGEN BIOPHARMA, published 2022)

B1: Ly409 (bispecific antibody, human IgG1, kappa)
heavy: EVQLVESGGGVVQPGRSLRLSCSASGFDFTTYWMSWVRQAPGKGLEWIGEIHPDSSTINYAPSLKDRFTISRDNAKNTLFLQMDSLRPEDTGVYFCASLYFGFPWFAYWGQGTPVTVSSASTKGPSVFPLAPSSKSTSGGTAALGCLVKDYFPEPVTVSWNSGALTSGVHTFPAVLQSSGLYSLSSVVTVPSSSLGTQTYICNVNHKPSNTKVDKKVEPKSCDKTHTCPPCPAPELLGPSVFLFPPKPKDTLMISRTPEVTCVVVDVSHEDPEVKFNWYVDGVEVHNAKTKPREEQYNSTYRVVSVLTVLHQDWLNGKEYKCKVSNKALPAPIEKTISKAKGQPREPQVYTLPPSREEMTKNQVSLTCLVKGFYPSDIAVEWESNGQPENNYKTTPPVLDSDGSFFLYSKLTVDKSRWQQGNVFSCSVMHEALHNHYTQKSLSLSPGGGGGSGGGGSGGGGSGGGGSDIQMTQSPSSLSASVGDRVTITCLASEDISNDLAWYQQKPGKAPKLLIYFVDRLLDGVPSRFSGSGSGTDFTLTISSLQPEDFATYYCQQSYKYPPTFGQGTKLEIKGGGGSGGGGSGGGGSGGGGSEVQLVESGGGLVQPGGSLRLSCAASGFTFTNYGLHWVRQAPGKGLEWVSSISPSGGVTYYRDSVKGRFTISRDNSKNTLYLQMNSLRAEDTAVYYCAKPFLGWGGANWIAHWGQGTLVTVSS
light: DIQLTQSPSSLSASVGDRVTITCKASQDVGTSVAWYQQKPGKAPKLLIYWTSTRHTGVPSRFSGSGSGTDFTFTISSLQPEDIATYYCQQYSLYRSFGQGTKVEIKRTVAAPSVFIFPPSDEQLKSGTASVVCLLNNFYPREAKVQWKVDNALQSGNSQESVTEQDSKDSTYSLSSTLTLSKADYEKHKVYACEVTHQGLSSPVTKSFNRGEC
notes: Ly311 HC (IgG1 mutated Fc)-TM559 scFv VL-VH + Ly311 LC
B2: Ly410 (bispecific antibody, human IgG1, kappa)
heavy: EVQLVESGGGVVQPGRSLRLSCSASGFDFTTYWMSWVRQAPGKGLEWIGEIHPDSSTINYAPSLKDRFTISRDNAKNTLFLQMDSLRPEDTGVYFCASLYFGFPWFAYWGQGTPVTVSSASTKGPSVFPLAPSSKSTSGGTAALGCLVKDYFPEPVTVSWNSGALTSGVHTFPAVLQSSGLYSLSSVVTVPSSSLGTQTYICNVNHKPSNTKVDKKVEPKSCDKTHTCPPCPAPELLGPSVFLFPPKPKDTLMISRTPEVTCVVVDVSHEDPEVKFNWYVDGVEVHNAKTKPREEQYNSTYRVVSVLTVLHQDWLNGKEYKCKVSNKALPAPIEKTISKAKGQPREPQVYTLPPSREEMTKNQVSLTCLVKGFYPSDIAVEWESNGQPENNYKTTPPVLDSDGSFFLYSKLTVDKSRWQQGNVFSCSVMHEALHNHYTQKSLSLSPGGGGGSGGGGSGGGGSGGGGSEVQLVESGGGLVQPGGSLRLSCAASGFTFTNYGLHWVRQAPGKGLEWVSSISPSGGVTYYRDSVKGRFTISRDNSKNTLYLQMNSLRAEDTAVYYCAKPFLGWGGANWIAHWGQGTLVTVSSGGGGSGGGGSGGGGSGGGGSDIQMTQSPSSLSASVGDRVTITCLASEDISNDLAWYQQKPGKAPKLLIYFVDRLLDGVPSRFSGSGSGTDFTLTISSLQPEDFATYYCQQSYKYPPTFGQGTKLEIK
light: B1 light
notes: Ly311 HC (IgG1 mutated Fc)-TM559 scFv VH-VL + Ly311 LC
B3: Ly413 (bispecific antibody, human IgG1, kappa)
heavy: EVQLVESGGGLVQPGGSLRLSCAASGFNIKDTYMHWVRQAPGKGLEWVARIDPANGNSKYADSVKGRFTISADTSKNTAYLQMNSLRAEDTAVYYCAPFGYYVSDYAMAYWGQGTLVTVSSASTKGPSVFPLAPSSKSTSGGTAALGCLVKDYFPEPVTVSWNSGALTSGVHTFPAVLQSSGLYSLSSVVTVPSSSLGTQTYICNVNHKPSNTKVDKKVEPKSCDKTHTCPPCPAPELLGPSVFLFPPKPKDTLMISRTPEVTCVVVDVSHEDPEVKFNWYVDGVEVHNAKTKPREEQYNSTYRVVSVLTVLHQDWLNGKEYKCKVSNKALPAPIEKTISKAKGQPREPQVYTLPPSREEMTKNQVSLTCLVKGFYPSDIAVEWESNGQPENNYKTTPPVLDSDGSFFLYSKLTVDKSRWQQGNVFSCSVMHEALHNHYTQKSLSLSPGGGGGSGGGGSGGGGSGGGGSDIQMTQSPSSLSASVGDRVTITCLASEDISNDLAWYQQKPGKAPKLLIYFVDRLLDGVPSRFSGSGSGTDFTLTISSLQPEDFATYYCQQSYKYPPTFGQGTKLEIKGGGGSGGGGSGGGGSGGGGSEVQLVESGGGLVQPGGSLRLSCAASGFTFTNYGLHWVRQAPGKGLEWVSSISPSGGVTYYRDSVKGRFTISRDNSKNTLYLQMNSLRAEDTAVYYCAKPFLGWGGANWIAHWGQGTLVTVSS
light: DIQLTQSPSSLSASVGDRVTITCRAGESVDIFGVGFLHWYQQKPGKAPKLLIYRASNLESGVPSRFSGSGSRTDFTLTISSLQPEDFATYYCQQTNEDPYTFGQGTKVEIKRTVAAPSVFIFPPSDEQLKSGTASVVCLLNNFYPREAKVQWKVDNALQSGNSQESVTEQDSKDSTYSLSSTLTLSKADYEKHKVYACEVTHQGLSSPVTKSFNRGEC
notes: Ly312 HC (IgG1 mutated Fc)-TM559 scFv VL-VH + Ly312 LC
B4: Ly411 (bispecific antibody, human IgG1, kappa)
heavy: EVQLVESGGGVVQPGRSLRLSCSASGFDFTTYWMSWVRQAPGKGLEWIGEIHPDSSTINYAPSLKDRFTISRDNAKNTLFLQMDSLRPEDTGVYFCASLYFGFPWFAYWGQGTPVTVSSASTKGPSVFPLAPSSKSTSGGTAALGCLVKDYFPEPVTVSWNSGALTSGVHTFPAVLQSSGLYSLSSVVTVPSSSLGTQTYICNVNHKPSNTKVDKKVEPKSCDKTHTCPPCPAPELLGPSVFLFPPKPKDTLMISRTPEVTCVVVDVSHEDPEVKFNWYVDGVEVHNAKTKPREEQYNSTYRVVSVLTVLHQDWLNGKEYKCKVSNKALPAPIEKTISKAKGQPREPQVYTLPPSREEMTKNQVSLTCLVKGFYPSDIAVEWESNGQPENNYKTTPPVLDSDGSFFLYSKLTVDKSRWQQGNVFSCSVMHEALHNHYTQKSLSLSPGK
light: DIQLTQSPSSLSASVGDRVTITCKASQDVGTSVAWYQQKPGKAPKLLIYWTSTRHTGVPSRFSGSGSGTDFTFTISSLQPEDIATYYCQQYSLYRSFGQGTKVEIKRTVAAPSVFIFPPSDEQLKSGTASVVCLLNNFYPREAKVQWKVDNALQSGNSQESVTEQDSKDSTYSLSSTLTLSKADYEKHKVYACEVTHQGLSSPVTKSFNRGECGGGGSGGGGSGGGGSGGGGSDIQMTQSPSSLSASVGDRVTITCLASEDISNDLAWYQQKPGKAPKLLIYFVDRLLDGVPSRFSGSGSGTDFTLTISSLQPEDFATYYCQQSYKYPPTFGQGTKLEIKGGGGSGGGGSGGGGSGGGGSEVQLVESGGGLVQPGGSLRLSCAASGFTFTNYGLHWVRQAPGKGLEWVSSISPSGGVTYYRDSVKGRFTISRDNSKNTLYLQMNSLRAEDTAVYYCAKPFLGWGGANWIAHWGQGTLVTVSS
notes: Ly311 HC (IgG1 mutated Fc) + Ly311 LC-TM559 scFv VL-VH
B5: Ly412 (bispecific antibody, human IgG1, kappa)
heavy: B4 heavy
light: DIQLTQSPSSLSASVGDRVTITCKASQDVGTSVAWYQQKPGKAPKLLIYWTSTRHTGVPSRFSGSGSGTDFTFTISSLQPEDIATYYCQQYSLYRSFGQGTKVEIKRTVAAPSVFIFPPSDEQLKSGTASVVCLLNNFYPREAKVQWKVDNALQSGNSQESVTEQDSKDSTYSLSSTLTLSKADYEKHKVYACEVTHQGLSSPVTKSFNRGECGGGGSGGGGSGGGGSGGGGSEVQLVESGGGLVQPGGSLRLSCAASGFTFTNYGLHWVRQAPGKGLEWVSSISPSGGVTYYRDSVKGRFTISRDNSKNTLYLQMNSLRAEDTAVYYCAKPFLGWGGANWIAHWGQGTLVTVSSGGGGSGGGGSGGGGSGGGGSDIQMTQSPSSLSASVGDRVTITCLASEDISNDLAWYQQKPGKAPKLLIYFVDRLLDGVPSRFSGSGSGTDFTLTISSLQPEDFATYYCQQSYKYPPTFGQGTKLEIK
notes: Ly311 HC (IgG1 mutated Fc) + Ly311 LC-TM559 scFv VH-VL
B6: Ly407 (bispecific antibody, human IgG1, kappa)
heavy: EVQLVESGGGLVQPGGSLRLSCAASGFNIKDTYMHWVRQAPGKGLEWVARIDPANGNSKYADSVKGRFTISADTSKNTAYLQMNSLRAEDTAVYYCAPFGYYVSDYAMAYWGQGTLVTVSSASTKGPSVFPLAPSSKSTSGGTAALGCLVKDYFPEPVTVSWNSGALTSGVHTFPAVLQSSGLYSLSSVVTVPSSSLGTQTYICNVNHKPSNTKVDKKVEPKSCDKTHTCPPCPAPELLGPSVFLFPPKPKDTLMISRTPEVTCVVVDVSHEDPEVKFNWYVDGVEVHNAKTKPREEQYNSTYRVVSVLTVLHQDWLNGKEYKCKVSNKALPAPIEKTISKAKGQPREPQVYTLPPSREEMTKNQVSLTCLVKGFYPSDIAVEWESNGQPENNYKTTPPVLDSDGSFFLYSKLTVDKSRWQQGNVFSCSVMHEALHNHYTQKSLSLSPGK
light: DIQLTQSPSSLSASVGDRVTITCRAGESVDIFGVGFLHWYQQKPGKAPKLLIYRASNLESGVPSRFSGSGSRTDFTLTISSLQPEDFATYYCQQTNEDPYTFGQGTKVEIKRTVAAPSVFIFPPSDEQLKSGTASVVCLLNNFYPREAKVQWKVDNALQSGNSQESVTEQDSKDSTYSLSSTLTLSKADYEKHKVYACEVTHQGLSSPVTKSFNRGECGGGGSGGGGSGGGGSGGGGSDIQMTQSPSSLSASVGDRVTITCKASQNIYIYLNWYQQKPGKAPKLLIYNTNNLQTGVPSRFSGSGSGTDFTLTISSLQPEDFATYYCLQHSSRRTFGGGTKVEIKGGGGSGGGGSGGGGSGGGGSQVQLVESGGGLVQPGGSLKLSCATSGFNFNDYFMNWVRQASGKGLEWVGQIRNKNYNYATYYTESLEGRVTISRDDSKNTAYLQMNSLKTEDTAVYYCTSYYYDGFADYFDYWGQGTTVTVSS
notes: Ly312 HC (IgG1 mutated Fc) + Ly312 LC-TM740 scFv VL-VH
B7: Ly408 (bispecific antibody, human IgG1, kappa)
heavy: B6 heavy
light: DIQLTQSPSSLSASVGDRVTITCRAGESVDIFGVGFLHWYQQKPGKAPKLLIYRASNLESGVPSRFSGSGSRTDFTLTISSLQPEDFATYYCQQTNEDPYTFGQGTKVEIKRTVAAPSVFIFPPSDEQLKSGTASVVCLLNNFYPREAKVQWKVDNALQSGNSQESVTEQDSKDSTYSLSSTLTLSKADYEKHKVYACEVTHQGLSSPVTKSFNRGECGGGGSGGGGSGGGGSGGGGSQVQLVESGGGLVQPGGSLKLSCATSGFNFNDYFMNWVRQASGKGLEWVGQIRNKNYNYATYYTESLEGRVTISRDDSKNTAYLQMNSLKTEDTAVYYCTSYYYDGFADYFDYWGQGTTVTVSSGGGGSGGGGSGGGGSGGGGSDIQMTQSPSSLSASVGDRVTITCKASQNIYIYLNWYQQKPGKAPKLLIYNTNNLQTGVPSRFSGSGSGTDFTLTISSLQPEDFATYYCLQHSSRRTFGGGTKVEIK
notes: Ly312 HC (IgG1 mutated Fc) + Ly312 LC-TM740 scFv VH-VL

The binders below were run against T1, human CD40 expressed on CHO cells (human, UniProt P25942 21-277) (assay: FACS, CHO cells).
T1 construct: whole, on cells; also used for the reporter cells over-expressing human CD40; also called cellular CD40; CHO-CD40 cells
T1 sequence (P25942 21-277): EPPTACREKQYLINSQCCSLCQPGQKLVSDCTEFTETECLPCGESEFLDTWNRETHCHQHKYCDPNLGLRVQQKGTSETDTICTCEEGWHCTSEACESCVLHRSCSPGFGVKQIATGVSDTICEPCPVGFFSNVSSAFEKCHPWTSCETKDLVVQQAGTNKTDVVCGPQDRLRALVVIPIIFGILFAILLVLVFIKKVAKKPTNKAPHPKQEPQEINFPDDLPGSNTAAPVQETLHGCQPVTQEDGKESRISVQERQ

| binding result | Binder |
| --- | --- |
| binds | B1 |
| binds | B2 |
| binds | B3 |
| binds | B4 |
| binds | B5 |
| binds | B6 |
| binds | B7 |
